Assay results taken from paper PMC3175422.

Target: calreticulin (CRT) (UniProt P27797)
Assay: SPR

UniProt P27797, sequence (P27797 18-417): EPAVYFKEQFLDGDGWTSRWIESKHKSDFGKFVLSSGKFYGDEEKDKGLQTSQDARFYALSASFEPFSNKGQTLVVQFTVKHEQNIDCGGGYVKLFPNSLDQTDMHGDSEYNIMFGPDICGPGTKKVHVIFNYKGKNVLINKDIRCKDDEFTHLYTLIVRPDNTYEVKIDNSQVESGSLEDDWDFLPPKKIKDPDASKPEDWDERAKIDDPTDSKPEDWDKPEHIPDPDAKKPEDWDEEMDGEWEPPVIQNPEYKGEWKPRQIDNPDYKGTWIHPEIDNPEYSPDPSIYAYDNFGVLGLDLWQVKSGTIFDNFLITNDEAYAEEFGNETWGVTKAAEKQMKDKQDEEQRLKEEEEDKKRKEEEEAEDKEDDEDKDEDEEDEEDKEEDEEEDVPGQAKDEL

Kd | koff | kon | Substance
38 nM | 0.000482 s⁻¹ | 12800 M⁻¹ s⁻¹ | Glc1Man9GlcNAc2-RNase (1) (from UniProt P61823 27-150) (enzyme)
110 nM | 0.00199 s⁻¹ | 18100 M⁻¹ s⁻¹ | Gal1Glc1Man9GlcNAc2-RNase (2) (from UniProt P61823 27-150) (enzyme)
